Measured values: patent publication US7482133B2, “Catalytic domains of β(1,4)-galactosyltransferase I having altered donor and acceptor specificities, domains that promote in vitro protein folding, and methods for their use” (The United States of America as represented by the …, priority 2003, dated 2009)

Assays:
Type in all cases: biochemical
[1] = GalNAc-T activity in absence and presence of LA, acceptor Glc; conditions: in the presence of LA
Protocol: Gal-T and GalNAc-T Enzyme Assays: The protein concentrations were measured using the Bio-Rad protein assay kit, based on the method of Bradford and further verified on SDS gel. […] The activities were measured using UDP-Gal or UDP-GalNAc as sugar nucleotide donors, and GlcNAc and Glc as the acceptor sugars. For the specific activity measurements, a 100-μl incubation mixture containing 50 mM β-benzyl-GlcNAc, 10 mM MnCl2, 10 mM Tris-HCl, pH 8.0, 500 μM UDP-Gal or UDP-GalNAc, 20 ng of Gal-T1, and 0.5 μCl of [^3H]UDP-Gal or [^3H]UDP-GalNAc was used for each Gal-T or GalNAc-T reaction. The incubation was carried out at 37° C. for 10 min. […] The column was washed successfully with 300, 400, and 500 μl of water, and the column flow-through was diluted with Biosafe scintillation fluid; radioactivity was measured with a Beckman counter. A reaction without the acceptor sugar was used as a control. […]

[2] = GalNAc-T specific activity assay; conditions: for UDP-GalNAc → GlcNAc GalNAc-T activity: donor 500 μM, acceptor β-benzyl-GlcNAc 25 mM
Protocol: (§1) For example, the galactose and N-acetylgalactosyltransferase activity of β(1,4)-galactosyltransferase I can be determined using the following assay conditions. […], 10 mM MnCl2, 10 mM Tris-HCl (pH 8.0), 500 μM UDP-Gal or UDP-GalNAc, and 20 ng of β(1,4)-galactosyltransferase I can be incubated at 37° C. for 10 minutes to promote coupling of a donor sugar to an acceptor sugar. While these conditions are provided as an example, it is understood that many other conditions may be used to chemically link a donor to an acceptor using the altered catalytic domains of the invention.
(§2) Gal-T and GalNAc-T Enzyme Assays: The protein concentrations were measured using the Bio-Rad protein assay kit, based on the method of Bradford and further verified on SDS gel. […] The activities were measured using UDP-Gal or UDP-GalNAc as sugar nucleotide donors, and GlcNAc and Glc as the acceptor sugars. For the specific activity measurements, […], 10 mM MnCl2, 10 mM Tris-HCl, pH 8.0, 500 μM UDP-Gal or UDP-GalNAc, 20 ng of Gal-T1, and 0.5 μCl of [^3H]UDP-Gal or [^3H]UDP-GalNAc was used for each Gal-T or GalNAc-T reaction. The incubation was carried out at 37° C. for 10 min. […] The column was washed successfully with 300, 400, and 500 μl of water, and the column flow-through was diluted with Biosafe scintillation fluid; radioactivity was measured with a Beckman counter. A reaction without the acceptor sugar was used as a control. A similar assay was carried out to measure the GalNAc-T activity with Glc and other acceptors in the presence of 50 μM bovine LA (Sigma).

[3] = GlcNAc-T specific activity assay; conditions: donor 500 μM; acceptor β-benzyl-GlcNAc 25 mM
[4] = Gal-T specific activity assay; conditions: donor 500 μM; acceptor β-benzyl-GlcNAc 25 mM (10 mM for C342T); saturating conditions
Protocol: as §1, §2

[5] = β4Gal-T1 enzyme assay of in vitro folded CD and SRCD proteins; conditions: condition I or VIII
Protocol: β4Gal-T1 Enzyme Assays: The in vitro assay for β4Gal-T1 enzyme activity was performed as described (Boeggeman et al., Glycobiology, 12:395-407 (2002)). The ^3H-labeled-UDP-Gal was used as sugar donor and GlcNAc as the sugar acceptor. A reaction without GlcNAc was used as a control.
Binding of recombinant proteins to UDP-affinity column: UDP-agarose was used to bind the active proteins at 4° C. Columns containing 1 ml bed volume of UDP-agarose were pre-equilibrated with 10 ml of 25 mM cacodylic buffer, pH 7.6, containing 25 mM MnCl2. The renatured protein solutions (0.5 mg) were adjusted to the pre-equilibration buffer conditions and applied to the columns. After loading the sample, the pass-through was re-cycled. It was then analyzed for the unbound protein by SDS-PAGE. The columns were washed 3× with 1-ml portions of equilibration buffer. The bound protein was eluted with the elution buffer consisting of 25 mM cacodylic buffer, pH 7.6, 25 mM EDTA and 1 M NaCl. Fractions of 0.5 ml were collected from the columns, and aliquots were analysed by SDS-PAGE. For enzymatic analysis the appropriate fractions were pooled and dialysed against 50 mM Tris-HCl pH 8.0 at 4° C. […]

[6] = Two-substrate kinetic constants, Gal-T reaction; conditions: UDP-galactose → GlcNAc
Description: Studies for Determining the Kinetic Constants: The true Km of the donor (KA) and of the acceptor (KB), the dissociation constant of the donor, Ki(a), and kcat were obtained using two-substrate analyses and the primary plots of five concentrations of donor (UDP-Gal or UDP-GalNAc) and five concentrations of acceptor, and the corresponding secondary plots of the intercepts and slopes. Initial rate conditions were linear with respect to time. A suitable range of donor and acceptor concentrations were chosen, which allowed an accurate Michaelis-Menten plot to be derived. The data were also analyzed for a general two-substrate system using the following equations (Zhang et al., Glycobiology, 9:815-822 (1999)) with the software EnzFitter, a Biosoft nonlinear curve-fitting program for Windows.
[formula] Here v is the initial velocity and the rate equation for sequential symmetrical initial velocity pattern associated with Equation 1, an ordered or random equilibrium mechanism in which substrate A dissociates well from the E-S complex with a dissociation constant of Ki(a). Equation 2 is for asymmetric initial velocity pattern for a double displacement or “ping-pong” mechanism. The kinetic parameters KA, KB, Ki(a), and Vmax, were obtained from the fitted curves using the above rate equations. The graphical method and EnzFitter program gave very similar kinetic parameters. In the N-acetylgalactosamine transferase (GalNAc-T) assay, the maximum substrate concentrations used for UDP-GalNAc and GlcNAc were 1 and 200 mM, respectively. However, in the galactose transferase (Gal-T) assay, because of the limited solubility of GlcNAc in water, the concentration of GlcNAc was limited to no more than […] (which is 2-fold higher than its Km value), whereas up to 300 μM UDP-Gal were used.

Row | Molecule | acceptor preference of GalNAc transfer [1] | UDP-GlcNAc → GlcNAc GlcNAc-T activity [3] | UDP-GalNAc → GlcNAc GalNAc-T activity [2] | UDP-galactose → GlcNAc Gal-T activity [4] | other results
1 | Y289N: bovine Gal-T1 catalytic domain, Tyr-289 exchanged with Asn (protein) SLTACPEESPLLVGPMLIEFNIPVDLKLIEQQNPKVKLGGRYTPMDCISPHKVAIIILFRNRQEHLKYWLYYLHPMVQRQQLDYGIYVINQAGESMFNRAKLLNVGFKEALKDYDYNCFVFSDVDLIPMNDHNTYRCFSQPRHISVAMDKFGFSLPYVQNFGGVSALSKQQFLSINGFPNNYWGWGGEDDDIYNRLAFRGMSVSRPNAVIGKTRMIRHSRDKKNEPNPQRFDRIAHTKETMLSDGLNSLTYMVLEVQRYPLYTKITVDIGTPS | transfer GalNAc preferably to Glc rather than to GlcNAc | – | – | – | galactose transferase versus N-acetylgalactosyltransferase activity ([2]; comparison in words (Table III, FIG. 1)): equally strong galactose transferase and N-acetylgalactosyltransferase activities
2 | Y289I_C342T: bovine Gal-T1 catalytic domain (residues 130-402), Tyr-289 exchanged with Ile, with Cys-342 to Thr mutation (protein) SLTACPEESPLLVGPMLIEFNIPVDLKLIEQQNPKVKLGGRYTPMDCISPHKVAIIILFRNRQEHLKYWLYYLHPMVQRQQLDYGIYVINQAGESMFNRAKLLNVGFKEALKDYDYNCFVFSDVDLIPMNDHNTYRCFSQPRHISVAMDKFGFSLPYVQIFGGVSALSKQQFLSINGFPNNYWGWGGEDDDIYNRLAFRGMSVSRPNAVIGKTRMIRHSRDKKNEPNPQRFDRIAHTKETMLSDGLNSLTYMVLEVQRYPLYTKITVDIGTPS | transfer GalNAc preferably to Glc rather than to GlcNAc | 6.2 pmol/min/ng | 14.7 pmol/min/ng | 8.8 pmol/min/ng | affinity to UDP-GalNAc ([2]; FIG. 1, in words): slightly weaker affinity; specific N-acetylgalactosyltransferase activity relative to Y289L ([2]; at the substrate concentration used): half that of Y289L
3 | bovine CDβ4Gal-T1: catalytic domain (residues 130-402) of bovine β4Gal-T1 (protein, UniProt P08037 130-402, looked up, fragment, catalytic domain, catalytic domain (residues 130-402) of bovine β4Gal-T1) SLTACPEESPLLVGPMLIEFNIPVDLKLVEQQNPKVKLGGRYTPMDCISPHKVAIIIPFRNRQEHLKYWLYYLHPILQRQQLDYGIYVINQAGESMFNRAKLLNVGFKEALKDYDYNCFVFSDVDLIPMNDHNTYRCFSQPRHISVAMDKFGFSLPYVQYFGGVSALSKQQFLSINGFPNNYWGWGGEDDDIYNRLAFRGMSVSRPNAVIGKCRMIRHSRDKKNEPNPQRFDRIAHTKETMLSDGLNSLTYMVLEVQRYPLYTKITVDIGTPS | – | – | – | – | specific activity before and after binding on UDP-agarose columns [5]: did not change
4 | C342T: catalytic domain of bovine Gal-T1 (residues 130-402) with the C342T mutation (protein, UniProt P08037 130-402, looked up, variant C342T, catalytic domain, catalytic domain of bovine Gal-T1 (residues 130-402) with the C342T mutation) SLTACPEESPLLVGPMLIEFNIPVDLKLVEQQNPKVKLGGRYTPMDCISPHKVAIIIPFRNRQEHLKYWLYYLHPILQRQQLDYGIYVINQAGESMFNRAKLLNVGFKEALKDYDYNCFVFSDVDLIPMNDHNTYRCFSQPRHISVAMDKFGFSLPYVQYFGGVSALSKQQFLSINGFPNNYWGWGGEDDDIYNRLAFRGMSVSRPNAVIGKTRMIRHSRDKKNEPNPQRFDRIAHTKETMLSDGLNSLTYMVLEVQRYPLYTKITVDIGTPS | – | 0 pmol/min/ng | 0.1 pmol/min/ng | 11.8 pmol/min/ng | KA (true Km of the donor), Gal-T [6]: 98 (6) μM; KB (true Km of the acceptor), Gal-T [6]: 11 (1) MM; Kcat., Gal-T ([6]; unit assumed): 14 s⁻¹
